The values that follow are results of earlier work, collected in publication PMC3877210.

In data set [1] the target is integrin β3 cytoplasmic tail (Homo sapiens) (UniProt P05106). Description: SPR.
Data set [2] concerns the target integrin β2 cytoplasmic tail (Homo sapiens) (UniProt P05107). Description: SPR. For orientation: Surface plasmon resonance follows binding to a sensor surface in real time, without labels.
Data set [3] addresses integrin β1 cytoplasmic tail (Homo sapiens) (UniProt P05556). In words: pulldown.
UniProt P05556, sequence (P05556 752-798): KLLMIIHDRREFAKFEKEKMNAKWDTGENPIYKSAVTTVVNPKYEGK
Data set [4] addresses integrin β3 cytoplasmic tail (Homo sapiens) (UniProt P05106). Description: NMR.

UniProt P05106, sequence (P05106 742-788): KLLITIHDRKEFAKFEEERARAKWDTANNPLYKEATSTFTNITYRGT
UniProt P05107, sequence (P05107 724-769): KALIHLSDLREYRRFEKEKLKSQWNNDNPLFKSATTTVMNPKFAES

Take talin F2-F3 F2-F3 (from UniProt Q9Y490): the Kd (in general, the free concentration of one partner at which half of the binding sites on the other are occupied at equilibrium, for simple one-to-one binding) in data set [1] was 91 nM; in data set [2], 12.5 nM; in data set [3] it was 67 nM.
Regarding talin F3 F3 (from UniProt Q9Y490), the Kd in data set [4] was 273000 nM.
